Reference: paper PMC12846431

Biological target: complex of wild-type MBP-Nef with the α(1–398)/σ2 hemicomplex of AP2 (HIV-1 (NL4.3) | not stated) (UniProt Q90VU7)
Assay: fluorescence polarisation; α(1–398)/σ2 (20 µM) and MBP-Nef WT or mutant (30 µM) mixed 30 min at room temperature, then 200 nM TMR-NTT, 15 μL, 1 or 2 h at room temperature; single concentration; control is probe only
Conditions: not given

Question: How did the FP signal turn out when “TMR-NTT (TMR-labeled Serinc3 NTT(Cys16) peptide, MBP removed) (from UniProt Q13530 1-39)” was run?
Answer: 90 mP

Biological target: TMR-NTT (TMR-labeled Serinc3 NTT(Cys16) peptide, MBP removed) (UniProt Q13530)
Assay: fluorescence polarisation
Conditions: read off a plot

Question: Which response does the source give for “complex of wild-type MBP-Nef with the α(1–398)/σ2 hemicomplex of AP2 (from UniProt Q90VU7;P18484;P53680) D123K” here?
Answer: 45 mP

Question: With “complex of wild-type MBP-Nef with the α(1–398)/σ2 hemicomplex of AP2 (from UniProt Q90VU7;P18484;P53680) F121D” as the substance, how does the response read?
Answer: 20 mP

Question: For “complex of wild-type MBP-Nef with the α(1–398)/σ2 hemicomplex of AP2 (from UniProt Q90VU7;P18484;P53680) L37D”, which response is on record?
Answer: 37 mP

Question: “complex of wild-type MBP-Nef with the α(1–398)/σ2 hemicomplex of AP2 (from UniProt Q90VU7;P18484;P53680) L112D” was tested. Which response did it give?
Answer: 16 mP

Question: How did the response turn out when “complex of wild-type MBP-Nef with the α(1–398)/σ2 hemicomplex of AP2 (from UniProt Q90VU7;P18484;P53680) W57A; L58A” was run?
Answer: 55 mP
